Tests used:
[1] = substrate: CC1=NN(c2ccccc2)C(=O)C1; assay: Activity of human recombinant UGT1A1 expressed in insect cells assessed as enzyme mediated glucuronidation by LC-MS/MS method; assay type: ADME
[2] = substrate: CC(C)c1cccc(C(C)C)c1O; assay: not read
[3] = substrate: COc1c(C)c2c(c(O)c1C/C=C(\C)CCC(=O)O)C(=O)OC2; assay: Activity of human recombinant UGT1A9 expressed in insect cells assessed as enzyme mediated glucuronidation by LC-MS/MS method; assay type: ADME
[4] = substrate: CC1=NN(c2ccccc2)C(=O)C1; assay: Activity of human recombinant UGT1A7 expressed in insect cells assessed as enzyme mediated glucuronidation by LC-MS/MS method; assay type: ADME
[5] = substrate: CC1=NN(c2ccccc2)C(=O)C1; assay: Activity of human recombinant UGT2B17 expressed in insect cells assessed as enzyme mediated glucuronidation by LC-MS/MS method; assay type: ADME
[6] = substrate: CC1=NN(c2ccccc2)C(=O)C1; assay: Activity of human recombinant UGT1A6 expressed in insect cells assessed as enzyme mediated glucuronidation by LC-MS/MS method; assay type: ADME
[7] = substrate: CC1=NN(c2ccccc2)C(=O)C1; assay: Activity of human recombinant UGT2B7 expressed in insect cells assessed as enzyme mediated glucuronidation by LC-MS/MS method; assay type: ADME

B1: UDP-glucuronosyltransferase 1A1 (Homo sapiens) (protein)
chain: MAVESQGGRPLVLGLLLCVLGPVVSHAGKILLIPVDGSHWLSMLGAIQQLQQRGHEIVVLAPDASLYIRDGAFYTLKTYPVPFQREDVKESFVSLGHNVFENDSFLQRVIKTYKKIKKDSAMLLSGCSHLLHNKELMASLAESSFDVMLTDPFLPCSPIVAQYLSLPTVFFLHALPCSLEFEATQCPNPFSYVPRPLSSHSDHMTFLQRVKNMLIAFSQNFLCDVVYSPYATLASEFLQREVTVQDLLSSASVWLFRSDFVKDYPRPIMPNMVFVGGINCLHQNPLSQEFEAYINASGEHGIVVFSLGSMVSEIPEKKAMAIADALGKIPQTVLWRYTGTRPSNLANNTILVKWLPQNDLLGHPMTRAFITHAGSHGVYESICNGVPMVMMPLFGDQMDNAKRMETKGAGVTLNVLEMTSEDLENALKAVINDKSYKENIMRLSSLHKDRPVEPLDLAVFWVEFVMRHKGAPHLRPAAHDLTWYQYHSLDVIGFLLAVVLTVAFITFKCCAYGYRKCLGKKGRVKKAHKSKTH
- Km [1]: 285 µM
- Vmax [1]: 4.52e-08 µmol/min/mg

B2: UDP-glucuronosyltransferase 1A9 (Homo sapiens) (protein)
chain: MACTGWTSPLPLCVCLLLTCGFAEAGKLLVVPMDGSHWFTMRSVVEKLILRGHEVVVVMPEVSWQLGRSLNCTVKTYSTSYTLEDLDREFKAFAHAQWKAQVRSIYSLLMGSYNDIFDLFFSNCRSLFKDKKLVEYLKESSFDAVFLDPFDNCGLIVAKYFSLPSVVFARGILCHYLEEGAQCPAPLSYVPRILLGFSDAMTFKERVRNHIMHLEEHLLCHRFFKNALEIASEILQTPVTEYDLYSHTSIWLLRTDFVLDYPKPVMPNMIFIGGINCHQGKPLPMEFEAYINASGEHGIVVFSLGSMVSEIPEKKAMAIADALGKIPQTVLWRYTGTRPSNLANNTILVKWLPQNDLLGHPMTRAFITHAGSHGVYESICNGVPMVMMPLFGDQMDNAKRMETKGAGVTLNVLEMTSEDLENALKAVINDKSYKENIMRLSSLHKDRPVEPLDLAVFWVEFVMRHKGAPHLRPAAHDLTWYQYHSLDVIGFLLAVVLTVAFITFKCCAYGYRKCLGKKGRVKKAHKSKTH
- Km [2]: 41 µM
- Km [3]: 160 µM

B3: UDP-glucuronosyltransferase 1A7 (Homo sapiens) (protein)
chain: MARAGWTGLLPLYVCLLLTCGFAKAGKLLVVPMDGSHWFTMQSVVEKLILRGHEVVVVMPEVSWQLGRSLNCTVKTYSTSYTLEDQDREFMVFADARWTAPLRSAFSLLTSSSNGIFDLFFSNCRSLFNDRKLVEYLKESCFDAVFLDPFDACGLIVAKYFSLPSVVFARGIFCHYLEEGAQCPAPLSYVPRLLLGFSDAMTFKERVWNHIMHLEEHLFCPYFFKNVLEIASEILQTPVTAYDLYSHTSIWLLRTDFVLEYPKPVMPNMIFIGGINCHQGKPVPMEFEAYINASGEHGIVVFSLGSMVSEIPEKKAMAIADALGKIPQTVLWRYTGTRPSNLANNTILVKWLPQNDLLGHPMTRAFITHAGSHGVYESICNGVPMVMMPLFGDQMDNAKRMETKGAGVTLNVLEMTSEDLENALKAVINDKSYKENIMRLSSLHKDRPVEPLDLAVFWVEFVMRHKGAPHLRPAAHDLTWYQYHSLDVIGFLLAVVLTVAFITFKCCAYGYRKCLGKKGRVKKAHKSKTH
- Km [4]: 432 µM
- Vmax [4]: 7.4e-07 µmol/min/mg

B4: UDP-glucuronosyltransferase 2B17 (Homo sapiens) (protein)
chain: MSLKWMSVFLLMQLSCYFSSGSCGKVLVWPTEYSHWINMKTILEELVQRGHEVIVLTSSASILVNASKSSAIKLEVYPTSLTKNDLEDFFMKMFDRWTYSISKNTFWSYFSQLQELCWEYSDYNIKLCEDAVLNKKLMRKLQESKFDVLLADAVNPCGELLAELLNIPFLYSLRFSVGYTVEKNGGGFLFPPSYVPVVMSELSDQMIFMERIKNMIYMLYFDFWFQAYDLKKWDQFYSEVLGRPTTLFETMGKAEMWLIRTYWDFEFPRPFLPNVDFVGGLHCKPAKPLPKEMEEFVQSSGENGIVVFSLGSMISNMSEESANMIASALAQIPQKVLWRFDGKKPNTLGSNTRLYKWLPQNDLLGHPKTKAFITHGGTNGIYEAIYHGIPMVGIPLFADQHDNIAHMKAKGAALSVDIRTMSSRDLLNALKSVINDPIYKENIMKLSRIHHDQPVKPLDRAVFWIEFVMRHKGAKHLRVAAHNLTWIQYHSLDVIAFLLACVATMIFMITKCCLFCFRKLAKTGKKKKRD
- Km [5]: 129 µM
- Vmax [5]: 4.29e-07 µmol/min/mg

B5: UDP-glucuronosyltransferase 1A6 (Homo sapiens) (protein)
chain: MACLLRSFQRISAGVFFLALWGMVVGDKLLVVPQDGSHWLSMKDIVEVLSDRGHEIVVVVPEVNLLLKESKYYTRKIYPVPYDQEELKNRYQSFGNNHFAERSFLTAPQTEYRNNMIVIGLYFINCQSLLQDRDTLNFFKESKFDALFTDPALPCGVILAEYLGLPSVYLFRGFPCSLEHTFSRSPDPVSYIPRCYTKFSDHMTFSQRVANFLVNLLEPYLFYCLFSKYEELASAVLKRDVDIITLYQKVSVWLLRYDFVLEYPRPVMPNMVFIGGINCKKRKDLSQEFEAYINASGEHGIVVFSLGSMVSEIPEKKAMAIADALGKIPQTVLWRYTGTRPSNLANNTILVKWLPQNDLLGHPMTRAFITHAGSHGVYESICNGVPMVMMPLFGDQMDNAKRMETKGAGVTLNVLEMTSEDLENALKAVINDKSYKENIMRLSSLHKDRPVEPLDLAVFWVEFVMRHKGAPHLRPAAHDLTWYQYHSLDVIGFLLAVVLTVAFITFKCCAYGYRKCLGKKGRVKKAHKSKTH
- Km [6]: 778 µM
- Vmax [6]: 1.24e-06 µmol/min/mg

B6: UDP-glucuronosyltransferase 2B7 (Homo sapiens) (protein)
chain: MSVKWTSVILLIQLSFCFSSGNCGKVLVWAAEYSHWMNIKTILDELIQRGHEVTVLASSASILFDPNNSSALKIEIYPTSLTKTELENFIMQQIKRWSDLPKDTFWLYFSQVQEIMSIFGDITRKFCKDVVSNKKFMKKVQESRFDVIFADAIFPCSELLAELFNIPFVYSLSFSPGYTFEKHSGGFIFPPSYVPVVMSELTDQMTFMERVKNMIYVLYFDFWFEIFDMKKWDQFYSEVLGRPTTLSETMGKADVWLIRNSWNFQFPYPLLPNVDFVGGLHCKPAKPLPKEMEDFVQSSGENGVVVFSLGSMVSNMTEERANVIASALAQIPQKVLWRFDGNKPDTLGLNTRLYKWIPQNDLLGHPKTRAFITHGGANGIYEAIYHGIPMVGIPLFADQPDNIAHMKARGAAVRVDFNTMSSTDLLNALKRVINDPSYKENVMKLSRIQHDQPVKPLDRAVFWIEFVMRHKGAKHLRVAAHDLTWFQYHSLDVIGFLLVCVATVIFIVTKCCLFCFWKFARKAKKGKND
- Km [7]: 2380 µM
- Vmax [7]: 1.77e-06 µmol/min/mg

From ChEMBL document CHEMBL3526061, “Glucuronidation of edaravone by human liver and kidney microsomes: biphasic kinetics and identification of UGT1A9 as the major UDP-glucuronosyltransferase isoform” (Drug Metab Dispos, 2012)
